In publication PMC4271737:

Legend:
[1] = target: human angiotensin II type 1 receptor with a C-terminal GFP-H10 tag (AT1R-GFP-H10) (human) (UniProt P30556); assay: radioligand binding; non-solubilised membranes (briefly sonicated cells); 0.5 nM [125I]Sar1 with 100 nM unlabelled Sar1; bound and free ligand separated by filtration through 96-well glass fibre filter plates without polyethyleneimine; background from parental or uninfected cells
[2] = target: human angiotensin II type 1 receptor with a C-terminal decahistidine tag (AT1R-H10) (human) (UniProt P30556); assay: as above

specific binding in membranes (dpm, set to 100%) [1]: 12000 dpm
specific binding in membranes (dpm, set to 100%) [2]: 1400 dpm
Substance: [^125I]sar^1-Ile^8-angiotensin II (peptide)
